The data set has as its system MS2 coat protein. Kind of data set: apparent KD of MS2 coat protein; higher = weaker reporter binding. The note with it: Eterna round: R107. Put shortly:
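Titrations with SNAP-549-labelled MS2 coat protein ran in twofold steps from 0.7 or 1.5 nM to 3 µM, each step taking 0.8–1.5 h at the start and 10–20 min toward the end. The targets were designed RNA switches transcribed on-chip from Illumina sequencing clusters, held in 100 mM Tris-HCl pH 7.5, 80 mM KCl, 4 mM MgCl2, without or with constant ligand. Apparent KD was taken per design as the median of normalised cluster binding-curve fits.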

Where [1] appears, read: input ligand: theophylline 20 uM.
Where [2] appears, read: input ligand: tryptophan 2.4 mM.
Where [3] appears, read: input ligand: theophylline 2 mM.

Take “UUAAGAGGAUAUCAAAUUUGAUUUUGUGAUACCAGAAUAAUUUUAUUCCCUUGGCAGCAUGACAUGAGGAUCACCCAUGUGUCUU [SSTheo A #1]”: the “apparent KD of MS2 coat protein” value by setting is: (input ligand: arginine 13.2 mM) 37.3 nM; under setting [1], 44.3 nM; under setting [2], 30.9 nM.
Consider “CAGUGAGAGUCGGCCGCCACUUAACGCAAGUAGCGCAACCCAAAACAUGAGGAUCACCCAUGUCGAAGGACCGGGACAAUGAGCG [theeternabot_sameState_MS2_Trp_B_47]”, for which the “apparent KD of MS2 coat protein” value (input ligand: arginine 13.2 mM) is 11.5 nM, the “apparent KD of MS2 coat protein” value under setting [1] was 16.7 nM and the “apparent KD of MS2 coat protein” value under setting [3] came out at 11.7 nM.
Take “ACACAUGAGGAUCACCCAUGUCCAAUAGAUACCAGUGAUACGGUGCACCCUUGGCAGCUGUUACUGAGUGAUGGUUCCCUCGGAA [Same State Theophylline A GF3]”: the “apparent KD of MS2 coat protein” value runs as follows: (input ligand: arginine 13.2 mM) 48.1 nM; under setting [1], 81.9 nM; under setting [2], 58.7 nM.
For “AAUUAAUUAACCGAUACCAGCCAACCAAAACAUGAGGAUCACCCAUGUAAGAAGAAGGGUGGCCCUUGGCAGCGGUUAAUUAAUU” the same measures were 31.4 nM, 16.7 nM and 30.5 nM.
Regarding “ACAUGAGGAUCACCCAUGUAUGGCGCGGAAGGAGCGUGAUUAAGCACAGGUAGGUCGCUGCGUUGAUCGAGCGUUAGCUCGAUAA [SSArg A #9]”, the “apparent KD of MS2 coat protein” value reads like this: (input ligand: arginine 13.2 mM) 15.8 nM; (input ligand: none) 19 nM; under setting [1], 25.1 nM; under setting [3], 22.4 nM; under setting [2], 22.3 nM.
“AGCGACAUGCGUGAUACCAGCUACAUGAGGAUCACCCAUGUACGUAGGAAACUACUGUGUAGCCCUUGGCAGCAUAGUGCAUGUC [Exclusion - Theophylline B (Freestyle 21)]”: the “apparent KD of MS2 coat protein” value is, setting by setting: (input ligand: arginine 13.2 mM) 14.6 nM; under setting [1], 20 nM; under setting [2], 13.5 nM.
Taken in the same sequence, the figures for “GUAAAUGUGACGGAUACCAGCGUGUUGUAGAACAUGAGGAUCACCCAUGUAGUGAUCAUGCGCCCUUGGCAGCUGGUAUGUUUGU [7.aB]” were 90.7 nM, 504 nM and 684 nM.
Taken in the same sequence, the figures for “AACAUGAGGAUCACCCAUGUAAAAUGGGAUACCAGAGACGAAAGUCUCCCUUGGCAGCCCACUGCCUCCUUUACGAAAGUAGAGG [Theophylline A 15]” were 29.8 nM, 32.5 nM and 38.3 nM.
On to “UUUACAUGAGGAUCACCCAUGUGCCAUGAUACCAGACAUGAAAAUGUCCCUUGGCAGCAUGAGUGAAGCGUCGGGAAACCGACGC [Kninicky]”, for which the “apparent KD of MS2 coat protein” value (input ligand: arginine 13.2 mM) was determined as 57.1 nM; the “apparent KD of MS2 coat protein” value (input ligand: none) was 249 nM; the “apparent KD of MS2 coat protein” value under setting [1] was 229 nM; the “apparent KD of MS2 coat protein” value under setting [3] amounted to 297 nM; the “apparent KD of MS2 coat protein” value under setting [2] came out at 261 nM.
Taken in the same sequence, the figures for “CCUGAUAACUGAAGGAGCGAGAAACCCUACAUGAGGAUCACCCAUGUAUACACGGGAACUUCUCAGGUAGGUCGCAGUUUGUCAG [Adiso]” were 48 nM, 101 nM, 165 nM, 138 nM and 71.5 nM.
Regarding “CGAGUAAGAACAAUCGAAUAACGGUUUUCGCGAGGACCGGUACGGCCGCCACUCGUGUGAAAUAACACAUGAGGAUCACCCAUGU [3'end-1]”, the “apparent KD of MS2 coat protein” value (input ligand: arginine 13.2 mM) stood at 23.7 nM, the “apparent KD of MS2 coat protein” value under setting [1] came out at 26.8 nM and the “apparent KD of MS2 coat protein” value under setting [3] was found to be 27.3 nM.
Turning to “ACAUGAGGAUCACCCAUGUCAUGAGGUUCACGAGGACCGGUACGGCCGCCACUCGACAUGAGGGUCACCCGUGAAGGGAACACCC [xdmullin]”, the “apparent KD of MS2 coat protein” value is, setting by setting: (input ligand: arginine 13.2 mM) 18.1 nM; (input ligand: none) 22.7 nM; under setting [1], 29.8 nM; under setting [3], 42.9 nM; under setting [2], 17.9 nM.
For “GCCGGGCCUUCGGCCGCCACUGAGAGAGUCGUGUGAACAUGAGGAUCACCCAUGUAAUAUAUAUACAGGACCGGGAGGGCCCGGC [4.V]” the same measures were 12.6 nM, 16.3 nM, 17.8 nM, 14.9 nM and 10.4 nM.
Consider “AUCUCAUAGAGUGAUACCAGACUACAUGAGGAUCACCCAUGUUAGAUUUAAAUAUCAUUUGUCCCUUGGCAGCACAUUAAGUACA [JR_Nu_SSTheophyB_Sub021]”, for which the “apparent KD of MS2 coat protein” value (input ligand: arginine 13.2 mM) turned out to be 14.2 nM, the “apparent KD of MS2 coat protein” value under setting [1] amounted to 14.8 nM and the “apparent KD of MS2 coat protein” value under setting [2] came to 12.7 nM.
Regarding “UUCAGCUAGUCGGCCGCCACUACACGAGGAUCACCCGUGUUCCUAAAACACUGCUUCGGCAGUGGUAGGACCGGGACUAGCUGAG”, the “apparent KD of MS2 coat protein” value (input ligand: arginine 13.2 mM) was found to be 27.7 nM; the “apparent KD of MS2 coat protein” value (input ligand: none) stood at 27.9 nM; the “apparent KD of MS2 coat protein” value under setting [1] is 33 nM; the “apparent KD of MS2 coat protein” value under setting [3] was found to be 36.7 nM; the “apparent KD of MS2 coat protein” value under setting [2] was found to be 123 nM.
With “GGUCAGCAGUCGGCCGCCACUAGUAUACAUGAGGAUCACCCAUGUCCCUUGCGCCUCACCGAUUUUAGGACCGGGACACUGCCUG [theeternabot_exclusion_MS2_Trp_B_9]”, the “apparent KD of MS2 coat protein” value (input ligand: arginine 13.2 mM) came to 25.1 nM, the “apparent KD of MS2 coat protein” value under setting [1] is 42 nM and the “apparent KD of MS2 coat protein” value under setting [3] stood at 40.2 nM.
Taken in the same sequence, the figures for “UGUCACUGUUUGGUUCAAUGAAGAAGAAUUCGAGGACCGGUACGGCCGCCACUCGCUAUGCAACAUGAGGAUCACCCAUGUAAAA [theeternabot_exclusion_MS2_Trp_A_31]” were 13.4 nM, 17 nM and 17.3 nM.
Taken in the same sequence, the figures for “GCAUCCUAGUCGGCCGCCACUGCAAUUGUAAUACUGCUACAUGAGGAUCACCCAUGUCCAUGUAGCAGGACCGGGACUAGGAUGC [SS Tryp B #16]” were 142 nM, 728 nM and 1240 nM.
With “UGACAUUGCUCAGAUACCAGACAUGAGGAUCACCCAUGUACCAAGGUACGAAAAUAACAUGUCCCUUGGCAGCUGAGCAAUGUCU [First try 2 #MS2Left #Theo2]”, the “apparent KD of MS2 coat protein” value stood at 16.7 nM (input ligand: arginine 13.2 mM), 27.6 nM under setting [1] and 12.4 nM under setting [2].

For the origin of these results see the supplement of paper PMC9170038.
